Biological target: the molecule itself
Assay: SEC; analytical SEC on Superdex 200 increase 5/150GL, 20 mM Tris-HCl pH 7.5, 200 mM NaCl, 1 mM TCEP; PAD6 at 1 mg/ml, 0.3 ml/min; calibrated with protein standards

B1: recombinant human peptidylarginine deiminase type VI (PAD6) V2-P694 S10E S446E (enzyme, UniProt Q6TGC4 2-694, looked up)
chain: VSVEGRAMEFQSIIHLSLDSPVHAVCVLGTEICLDLSGCAPQKCQCFTIHGSGRVLIDVANTVISEKEDATIWWPLSDPTYATVKMTSPSPSVDADKVSVTYYGPNEDAPVGTAVLYLTGIEVSLEVDIYRNGQVEMSSDKQAKKKWIWGPSGWGAILLVNCNPADVGQQLEDKKTKKVIFSEEITNLSQMTLNVQGPSCILKKYRLVLHTSKEESKKARVYWPQKDNSSTFELVLGPDQHAYTLALLGNHLKETFYVEAIAFPSAEFSGLISYSVSLVEESQDPSIPETVLYKDTVVFRVAPCVFIPCTQVPLEVYLCRELQLQGFVDTVTKLSEKSNSQVASVYEDPNRLGRWLQDEMAFCYTQAPHKTTSLILDTPQAADLDEFPMKYSLSPGIGYMIQDTEDHKVASMDSIGNLMVSPPVKVQGKEYPLGRVLIGSSFYPEAEGRAMSKTLRDFLYAQQVQAPVELYSDWLMTGHVDEFMCFIPTDDKNEGKKGFLLLLASPSACYKLFREKQKEGYGDALLFDELRADQLLSNGREAKTIDQLLADESLKKQNEYVEKCIHLNRDILKTELGLVEQDIIEIPQLFCLEKLTNIPSDQQPKRSFARPYFPDLLRMIVMGKNLGIPKPFGPQIKGTCCLEEKICCLLEPLGFKCTFINDFDCYLTEVGDICACANIRRVPFAFKWWKMVP
notes: human peptidylarginine deiminase type VI (PAD6), residues V2-P694, called a full-length construct, with the phosphomimetic mutations S10E and S446E; also called phosphomimetic PAD6; human PAD6 phosphomimic mutant; source: HEK cells, transient transfection, purified (glutathione Sepharose, TEV cleavage, reverse HisTrap, Superdex 200); not shown: His6, N-terminal, cleaved; GST, N-terminal, cleaved
For B1, the “stoichiometry N” value was 2.

Reference: article PMC11067741, “Crystal structure of human peptidylarginine deiminase type VI (PAD6) provides insights into its inactivity” (IUCrJ, 2024)
